Laboratory results: article PMC2193136

Legend:
[1] = target: HLA-DR2 (DRA1*0101/DRB1*1501) molecules, detergent-solubilized, purified from S2 cells (human); assay: peptide binding inhibition assay
[2] = target: HLA-DR2 (DRA1*0101/DRB1*1501) molecules, detergent-solubilized, purified from S2 cells (human); assay: competition peptide-binding assay

Substance | IC50 [1] [nM] | IC50 [2] [nM]
HLA-DQw6 peptide corresponding to residues 43–58 | 70 | 
MBP 85–96 truncated peptide |  | 20
MBP 85–97 truncated peptide |  | 15
MBP 85–98 truncated peptide |  | 4
MBP 85–99 analogue 85 (E→A) (peptide) |  | 7
MBP 85–99 analogue 86 (N→A) (peptide) |  | 7
MBP 85–99 analogue 87 (P→A) (peptide) |  | 10
MBP 85–99 analogue 88 (V→A) (peptide) |  | 10
MBP 85–99 analogue 89 (V→A) (peptide) |  | 50
MBP 85–99 analogue 90 (H→A) (peptide) |  | 10
MBP 85–99 analogue 91 (F→A) (peptide) |  | 10
MBP 85–99 analogue 92 (F→Y) (peptide) |  | 12
MBP 85–99 analogue 93 (K→A) (peptide) |  | 4
MBP 85–99 analogue 94 (N→A) (peptide) |  | 4
MBP 85–99 analogue 95 (I→A) (peptide) |  | 4
MBP 85–99 analogue 96 (V→A) (peptide) |  | 4
MBP 85–99 analogue 97 (T→A) (peptide) |  | 4
MBP 85–99 analogue 98 (P→A) (peptide) |  | 5
MBP 85–99 analogue 99 (R→A) (peptide) |  | 5
MBP 85–99 peptide |  | 5
MBP 86–99 truncated peptide (row label printed as (85–99)) |  | 3
MBP 87–99 truncated peptide |  | 5
MBP 88–99 truncated peptide |  | 30
human PLP peptide PLP 40–60 | 200 | 
human PLP peptide PLP 95–116 | 1480 | 
